Consider six substances from the supplement of paper PMC5998384.

For series [1], the system named is HeLa Kyoto. The experiment in a line: solubility in G1/S (NP-40 vs SDS abundance) (log2 ratio); higher = more soluble. The note with it: cell cycle stage: G1/S.
Series [2] has as its system HeLa Kyoto. Description: melting temperature (median over replicates), in situ; higher = more thermally stable.
The test system of series [3] is HeLa Kyoto. Description: solubility change mitosis vs G1/S (difference of NP-40 vs SDS log2 ratios) (log2 ratio difference); higher = more soluble in mitosis.
Series [4] has as its system HeLa Kyoto. The experiment in a line: thermal stability score vs G1/S (z-score of summed log2 fold changes over temperatures); higher = more thermally stable than in G1/S.
[5] abbreviates: cell cycle stage: early G1 (4.5 h after nocodazole release).
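Wherever melting temperature (median over replicates), in situ is given: HeLa Kyoto cells synchronized by double thymidine or nocodazole block, proteins quantified by TMT10plex mass spectrometry, three independent biological replicates.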
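Wherever solubility change mitosis vs G1/S (difference of NP-40 vs SDS log2 ratios) is given: synchronized HeLa Kyoto cells (double thymidine block for G1/S, nocodazole release for mitosis), protein amounts in NP-40 versus SDS lysates quantified by mass spectrometry, three biological replicates.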
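Wherever solubility in G1/S (NP-40 vs SDS abundance) is given: HeLa Kyoto cells arrested at G1/S by double thymidine block, proteins quantified by TMT10plex mass spectrometry in mild NP-40 versus SDS extracts, three biological replicates.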
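Wherever thermal stability score vs G1/S (z-score of summed log2 fold changes over temperatures) is given: synchronized HeLa Kyoto cells, proteins quantified by TMT10plex mass spectrometry, three biological replicates, mitosis taken 0.5 h after nocodazole release, G1/S directly after double thymidine block.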

With GPATCH8, the “solubility in G1/S (log2)” value with HeLa Kyoto [1] is -0.561. Further, the melting temperature in the series on HeLa Kyoto [2] (cell cycle stage: G1/S) is 47.8 °C; with HeLa Kyoto [2] (cell cycle stage: mitosis), 49.6 °C. In the series with HeLa Kyoto [3], the “solubility change mitosis (log2)” value turned out to be 0.335. The thermal stability score in the series with HeLa Kyoto [4] (setting [5]) is 0.236; in the series with HeLa Kyoto [4] (cell cycle stage: mitosis), 4.11.
As to “MKGLYFQQSSTDEEITFVFQEKEDLPVTEDNFVKLQVKACALSQINTKLLAEMKMKKDLFPVGREIAGIVLDVGSKVSFFQPDDEVVGILPLDSEDPGLCEVVRVHEHYLVHKPEKVTWTEAAGSIRDGVRAYTALHYLSHLSPGKSVLIMDGASAFGTIAIQLAHHRGAKVISTACSLEDKQCLERFRPPIARVIDVSNGKVHVAESCLEETGGLGVDIVLDAGVRLYSKDDEPAVKLQLLPHKHDIITLLGVGGHWVTTEENLQLDPPDSHCLFLKGATLAFLNDEVWNLSNVQQGKYLCILKDVMEKLSTGVFRPQLDEPIPLYEAKVSMEAVQKNQGRKKQVVQF [CRYZL1]”, in the series on HeLa Kyoto [1], the “solubility in G1/S (log2)” value is 0.11. In addition, the melting temperature in the series with HeLa Kyoto [2] (cell cycle stage: G1/S) amounted to 57 °C; in the series with HeLa Kyoto [2] (cell cycle stage: mitosis), 56.9 °C. Moreover, the “solubility change mitosis (log2)” value with HeLa Kyoto [3] is -0.249. Moreover, the thermal stability score is 0.0481 in the series with HeLa Kyoto [4] (setting [5]) and -1.74 with HeLa Kyoto [4] (cell cycle stage: mitosis).
Consider “MDSEAFQSARDFLDMNFQSLAMKHMDLKQMELDTAAAKVDELTKQLESLWSDSPAPPGPQAGPPSRPPRYSSSSIPEPFGSRGSPRKAATDGADTPFGRSESAPTLHPYSPLSPKGRPSSPRTPLYLQPDAYGSLDRATSPRPRAFDGAGSSLGRAPSPRPGPGPLRQQGPPTPFDFLGRAGSPRGSPLAEGPQAFFPERGPSPRPPATAYDAPASAFGSSLLGSGGSAFAPPLRAQDDLTLRRRPPKAWNESDLDVAYEKKPSQTASYERLDVFARPASPSLQLLPWRESSLDGLGGTGKDNLTSATLPRNYKVSPLASDRRSDAGSYRRSLGSAGPSGTLPRSWQPVSRIPMPPSSPQPRGAPRQRPIPLSMIFKLQNAFWEHGASRAMLPGSPLFTRAPPPKLQPQPQPQPQPQSQPQPQLPPQPQTQPQTPTPAPQHPQQTWPPVNEGPPKPPTELEPEPEIEGLLTPVLEAGDVDEGPVARPLSPTRLQPALPPEAQSVPELEEVARVLAEIPRPLKRRGSMEQAPAVALPPTHKKQYQQIISRLFHRHGGPGPGGPEPELSPITEGSEARAGPPAPAPPAPIPPPAPSQSSPPEQPQSMEMRSVLRKAGSPRKARRARLNPLVLLLDAALTGELEVVQQAVKEMNDPSQPNEEGITALHNAICGANYSIVDFLITAGANVNSPDSHGWTPLHCAASCNDTVICMALVQHGAAIFATTLSDGATAFEKCDPYREGYADCATYLADVEQSMGLMNSGAVYALWDYSAEFGDELSFREGESVTVLRRDGPEETDWWWAALHGQEGYVPRNYFGLFPRVKPQRSKV [PPP1R13L]”, for which the “solubility in G1/S (log2)” value in the series with HeLa Kyoto [1] stood at 0.09. Moreover, the values for the melting temperature in the series on HeLa Kyoto [2] (cell cycle stage: G1/S) and in the series with HeLa Kyoto [2] (cell cycle stage: mitosis) were 51.2 °C and 51.5 °C, respectively. In addition, the “solubility change mitosis (log2)” value in the series with HeLa Kyoto [3] came to 0.0483. The thermal stability score in the series on HeLa Kyoto [4] (setting [5]) is -0.761; in the series on HeLa Kyoto [4] (cell cycle stage: mitosis), 0.0817.
Turning to SMG1, the “solubility in G1/S (log2)” value in the series on HeLa Kyoto [1] is -0.17. Also, the melting temperature in the series on HeLa Kyoto [2] (cell cycle stage: G1/S) stood at 50.3 °C; in the series with HeLa Kyoto [2] (cell cycle stage: mitosis), 50.2 °C. Also, the “solubility change mitosis (log2)” value in the series with HeLa Kyoto [3] is -0.102. Further, the thermal stability score with HeLa Kyoto [4] (setting [5]) is -0.61; in the series with HeLa Kyoto [4] (cell cycle stage: mitosis), -0.143.
Regarding “MTDGILGKAATMEIPIHGNGEARQLPEDDGLEQDLQQVMVSGPNLNETSIVSGGYGGSGDGLIPTGSGRHPSHSTTPSGPGDEVARGIAGEKFDIVKKWGINTYKCTKQLLSERFGRGSRTVDLELELQIELLRETKRKYESVLQLGRALTAHLYSLLQTQHALGDAFADLSQKSPELQEEFGYNAETQKLLCKNGETLLGAVNFFVSSINTLVTKTMEDTLMTVKQYEAARLEYDAYRTDLEELSLGPRDAGTRGRLESAQATFQAHRDKYEKLRGDVAIKLKFLEENKIKVMHKQLLLFHNAVSAYFAGNQKQLEQTLQQFNIKLRPPGAEKPSWLEEQ [ARFIP2]”, the “solubility in G1/S (log2)” value in the series on HeLa Kyoto [1] turned out to be 0.602. The values for the melting temperature with HeLa Kyoto [2] (cell cycle stage: G1/S) and with HeLa Kyoto [2] (cell cycle stage: mitosis) were 51.1 °C and 50.9 °C, respectively. For the same substance, in the series on HeLa Kyoto [3], the “solubility change mitosis (log2)” value was 0.0365. The values for the thermal stability score in the series on HeLa Kyoto [4] (setting [5]) and in the series with HeLa Kyoto [4] (cell cycle stage: mitosis) were -0.945 and -2.87, respectively.
Turning to “MTDTRRRVKVYTLNEDRQWDDRGTGHVSSGYVERLKGMSLLVRAESDGSLLLESKINPNTAYQKQQDTLIVWSEAENYDLALSFQEKAGCDEIWEKICQVQGKDPSVDITQDLVDESEEERFDDMSSPGLELPSCELSRLEEIAELVASSLPSPLRREKLALALENEGYIKKLLELFHVCEDLENIEGLHHLYEIIKGIFLLNRTALFEVMFSEECIMDVIGCLEYDPALSQPRKHREFLTKTAKFKEVIPISDPELKQKIHQTYRVQYIQDMVLPTPSVFEENMLSTLHSFIFFNKVEIVGMLQEDEKFLTDLFAQLTDEATDEEKRQELVNFLKEFCAFSQTLQPQNRDAFFKTLSNMGILPALEVILGMDDTQVRSAATDIFSYLVEYNPSMVREFVMQEAQQNDDVSKKLTEQKITSKDILLINLIIEHMICDTDPELGGAVQLMGLLRTLVDPENMLATANKTEKTEFLGFFYKHCMHVLTAPLLANTTEDKPSKDDFQTAQLLALVLELLTFCVEHHTYHIKNYIINKDILRRVLVLMASKHAFLALCALRFKRKIIGLKDEFYNRYIMKSFLFEPVVKAFLNNGSRYNLMNSAIIEMFEFIRVEDIKSLTAHVIENYWKALEDVDYVQTFKGLKLRFEQQRERQDNPKLDSMRSILRNHRYRRDARTLEDEEEMWFNTDEDDMEDGEAVVSPSDKTKNDDDIMDPISKFMERKKLKESEEKEVLLKTNLSGRQSPSFKLSLSSGTKTNLTSQSSTTNLPGSPGSPGSPGSPGSPGSVPKNTSQTAAITTKGGLVGLVDYPDDDEDDDEDEDKEDTLPLSKKAKFDS [PPP4R3A]”, the “solubility in G1/S (log2)” value in the series with HeLa Kyoto [1] was 0.0151. For the same substance, the melting temperature was 52.9 °C with HeLa Kyoto [2] (cell cycle stage: G1/S) and 52 °C in the series on HeLa Kyoto [2] (cell cycle stage: mitosis). Further, the “solubility change mitosis (log2)” value in the series on HeLa Kyoto [3] was -0.214. In addition, the thermal stability score was -0.659 in the series on HeLa Kyoto [4] (setting [5]) and 0.337 with HeLa Kyoto [4] (cell cycle stage: mitosis).
